Here are results for eight molecules from patent US20230084099A1 (NATIONAL UNIVERSITY CORPORATION TOKAI NATIONAL HIGHER …, published 2023).

Sequences and labels used below:
T1: human MEFLIN expressed on cells (human, UniProt O14498 19-428)
T1 sequence (looked up): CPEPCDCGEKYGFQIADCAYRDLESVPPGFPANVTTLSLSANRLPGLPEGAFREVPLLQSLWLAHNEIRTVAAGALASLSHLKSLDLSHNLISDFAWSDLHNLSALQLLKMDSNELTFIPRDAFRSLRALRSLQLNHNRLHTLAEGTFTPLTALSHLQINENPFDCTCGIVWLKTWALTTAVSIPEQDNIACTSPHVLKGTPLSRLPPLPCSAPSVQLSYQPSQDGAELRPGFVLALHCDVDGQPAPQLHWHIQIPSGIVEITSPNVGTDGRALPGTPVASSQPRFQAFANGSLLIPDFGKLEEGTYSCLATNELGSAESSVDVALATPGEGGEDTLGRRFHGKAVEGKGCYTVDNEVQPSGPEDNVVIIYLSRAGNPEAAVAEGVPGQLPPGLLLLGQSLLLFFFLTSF

T2: human MEFLIN protein (human, UniProt O14498 19-428, limits assumed)
T2 construct: In the Western blot the protein and its fragments carried a C-terminal G196 tag and His tag and were expressed in HEK293 cells; also called hMEFLIN; ISLR
T2 sequence (looked up): T1 sequence (looked up)

B1: ADC27-7 (other, DAR 2.4)
VH: EVQLVESGGSLVQPGGSLKLSCVASGYTFSKYWMDWVRQTPGKSLEWIGEINTDGSKTNYAPSIKDRFTISRDNAKSTLYLQMSNVKSDDTAIYYCTNWEDYWGQGVMVTVSS
VL: DVVMTQTPPSLSVAIGQSVSISCKSSQSLVYSDGKTYLHWLLQSSGRSPKRLIYQVSNLDSGVPDRFSGTGSQKDFTLKISRVEAKDLGVYYCAQTTHFPYTFGAGTKLELK
modifications: MMAE drug-linker on cysteine thiols exposed by DTT reduction (positions not stated)
B2: 35-9 antibody (antibody, V domains shown)
VH: QVQLTESGPGLVQPSQTLSLTCTVSGFSLSSYGVIWVRQPPGKGLEWMGVIWGNGNTNYNSTLKSRLSISRDTSKSQVFLKMNILQTEDTAMYFCARWESGDYWGQGVTVTVSS
VL: DVVMTQTPVSLSVAVGQPASISCTSSQSLVGSGGKTYLNWFLQRPGQSPKRLISLVSKLDSGIPDRFSGSGSETDFTLKISRVEADDLGVYYCLQGTHFPWTFGGGTKQELK
notes: Rat hybridoma monoclonal antibody; used as hybridoma culture supernatant; also called clone 35-9
B3: 27-8 antibody (antibody, V domains shown)
VH: VQLTESGPGLVKPSQSLSLTCSVTGYTITSGYDWSWIRKFPGNKMEWMGYITYSGSTNYNPSLKSRISITRDTSKNQFFLQLNSVTTEDTATYYCSRDIAAISFAYWGQGTLVTVSS
VL: DVVMTQTPVAQPVTLGDQASISCRSSQSLVHSNGNTYLEWYLQKPGQSPQLLIYKVSNRFSGVPDRFIGSGSGSDFTLKISRVEPEDLGVYYCFQATHVPLTFGSGTKLEIK
notes: Rat hybridoma monoclonal antibody; used as hybridoma culture supernatant; also called clone 27-8
B4: 46-3 antibody (antibody, V domains shown)
VH: VQLKESGPGLVKPSQSLSLTCSVTGYTITSGYDWSWIRKFPGNKMEWMGFITYSGSTHHNPSLKSRISITRDTSRNQFFLQLNSVTTEDSATYYCARDFSGISFAYWGQGTLVSVSS
VL: B3 VL with M4L, A19V, V90I, V99D
notes: Rat hybridoma monoclonal antibody; used as hybridoma culture supernatant; also called clone 46-3
B5: 27-7 antibody (antibody, V domains shown)
VH: B1 VH
VL: B1 VL
notes: Rat hybridoma monoclonal antibody; used as hybridoma culture supernatant; also called clone 27-7
B6: 34-4 antibody (antibody, V domains shown)
VH: QVQLMESGPGLVQPSQTLSLTCTVSGFSLTSYDMHWVRQPPGKGLEWMGVIWGNGNTHYNSALKSRLSISRDTSKSQVFLKMNSLQTENTAIYFCTGGYFYWGQGVTVTVSS
VL: DVVMTQTPVSLSVAIGHPASISCKSSQSLVGTGGKTYLSWLLQRPGQSPKRLIYLVSKLDSGIPDRFSGSGSETDFTLKISRVEADDLGVYYCLQGTHFPFTFGSGTQLEMK
notes: Rat hybridoma monoclonal antibody; used as hybridoma culture supernatant; also called clone 34-4
B7: 32-1 antibody (antibody, V domains shown)
VH: VQLQQSGGDLVKPGGSLKLSCAASGFTFSSYGMSWVRQTPDKRLEWVATISSGGSYTYYPDSVKGRFTISRDNAKNTLYLQMSSLKSEDTAMYYCVIDYDVMDYWGQGTSVTVSS
VL: DIVMTQTPSSLAVSAGEKVTMSCKSSQSLLNSRTRKNYLAWYQQKPGQSPKLLIYWASTRESGVPDRFTGSGSGTDFTLTISSVQAEDLAVYYCKQSYNLRTFGGGTKLEIK
notes: Mouse hybridoma monoclonal antibody; used as hybridoma culture supernatant; also called clone 32-1
B8: 11-8 antibody (antibody, V domains shown)
VH: VQLQESGPELVKPGASVKISCKASGYSFTDYIILWVKQSHGKSLEWIGNINPYSGNTRYNLKFKGKATLTVDKSSSTAYMQLNSLTSEDSAVYYCARDGDDYAMDYWGQGTSVTVSS
VL: DIVITQTPLSLPVSLGDQASISCRSSQSIVHSNGNTYLEWYLQKPGQSPRLLIYKVSNRFSGVPDRFSGSGSGTDFTLKISRVETEDLGVYYCFQGSHVPWTFGGGTKLEIK
notes: Mouse hybridoma monoclonal antibody; used as hybridoma culture supernatant; also called clone 11-8

Substitutions are numbered along the chain they refer to.

The target in one assay is T1, human MEFLIN expressed on cells. The experiment in a line: cell-based or functional assay.
As to B1, the “EC50 of cell proliferation inhibition (MTT test)” value worked out at 0.72 nM.

The target in a further assay is T2, human MEFLIN protein. The assay is described as follows: Western blotting on tagged human MEFLIN fragments. Here is the method:
The human embryonic kidney (HEK293) cell line was allowed to transiently express pRP-CMV vector having an insert of DNA encoding the human MEFLIN protein or a fragment thereof by lipofection, and a cell lysate was prepared. […] SDS-PAGE was performed using the cell lysate, and the electrophoresed protein was transferred to a PVDF membrane. The PVDF membrane was reacted at ordinary temperature for 1 hour using 5% skimmed milk/PBS. The primary antibody used was a culture supernatant of each hybridoma clone diluted 50-fold with PBS. For a positive subject, an anti-G196 antibody was used as a primary antibody. The PVDF membrane was reacted overnight at 4° C. in the presence of the primary antibody. Then, the PVDF membrane was washed with 0.05% Tween/PBS. The secondary antibody used was an anti-rat or anti-mouse antibody-horseradish peroxidase (HRP) conjugate. The secondary antibody was diluted 1000-fold with PBS and reacted with the PVDF membrane at ordinary temperature for 45 minutes. After washing with 0.05% Tween/PBS, the HRP label on the antibody was allowed to emit light using ECL (GE Healthcare Japan Corp.), and an image was captured into a computer using a CCD imager (Las 4000, GE Healthcare Japan Corp.).
On the technique in general: In western blotting, separated proteins are transferred to a membrane and probed.
For the molecule B2, the binding result was “binds”. On to B3, for which the binding result is “binds”. For B4, the binding result is “binds”.

As for B5, the binding result is recorded as “binds”. Same read-out and setting: the entry for B6 is “binds”; for B7 it is “binds”.

As to B8, the binding result is “binds”.
